Data taken from patent US20050272633A1.
Where no end group is shown, it is not given here.

B1: cγc 289-357 (12 aa deleted from the membrane distal domain) (receptor, not shown: large carriers)
chain: RIPTLKNLEDLVTEYHGNFSAWSGVSKGLAESLQPDYSERLCLVSEIPPKGGALGEGPGASPCNQHSPY
B2: cγc 289-325 (44 aa deleted from the ICD) (receptor, not shown: large carriers)
chain: RIPTLKNLEDLVTEYHGNFSAWSGVSKGLAESLQPDY
modifications: also: fused to GAL4 DNA-binding domain (two-hybrid bait), letters not given here

Target: NIK624-947 (C-terminal domain of NIK) (human) (UniProt Q99558)
Sequence (Q99558 624-947 limits assumed): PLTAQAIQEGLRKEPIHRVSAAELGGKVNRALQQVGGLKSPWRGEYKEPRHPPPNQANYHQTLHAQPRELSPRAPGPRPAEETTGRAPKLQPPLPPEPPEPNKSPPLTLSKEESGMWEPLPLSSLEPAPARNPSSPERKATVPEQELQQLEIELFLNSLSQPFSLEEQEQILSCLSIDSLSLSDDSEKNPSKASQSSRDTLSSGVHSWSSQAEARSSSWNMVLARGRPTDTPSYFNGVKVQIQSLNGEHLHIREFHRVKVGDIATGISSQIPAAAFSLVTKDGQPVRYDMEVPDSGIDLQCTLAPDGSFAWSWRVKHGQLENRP
Test: yeast two-hybrid, against cγc 289-369 as reference

Row | Binder | reduction in affinity [%]
1 | B1 | 50
2 | B2 | 50
